From article PMC3292583, “Poplar GTL1 Is a Ca2+/Calmodulin-Binding Transcription Factor that Functions in Plant Water Use Efficiency and Drought Tolerance”

Key:
[1] = molecular target: T1, PtaGTL1-C (C-terminal trihelix DNA-binding fragment) (Populus tremula x P. alba (clone …, UniProt G8G9Q9 528-779)); assay: EMSA; LightShift Chemiluminescent EMSA kit, per cited earlier method; 200 ng biotin probe, 1000 ng competitor; binding buffer, salt, pH and temperature not stated (probes annealed in 10 mM Tris-HCl, 1 mM EDTA, pH 8.0); conditions: protein: recombinant; tags: N-terminal 6xHis (pDEST17); label: 3' biotin (probe); blunt
T1 sequence: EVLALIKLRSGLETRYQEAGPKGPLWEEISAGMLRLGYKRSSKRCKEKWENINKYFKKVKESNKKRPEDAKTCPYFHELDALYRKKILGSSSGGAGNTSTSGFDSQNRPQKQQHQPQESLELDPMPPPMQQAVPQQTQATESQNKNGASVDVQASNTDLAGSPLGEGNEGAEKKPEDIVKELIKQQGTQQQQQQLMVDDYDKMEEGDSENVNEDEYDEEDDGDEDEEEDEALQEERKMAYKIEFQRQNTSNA

[2] = molecular target: T1, PtaGTL1-C (C-terminal trihelix …); assay: EMSA; text: mutation inhibited the interaction; LightShift Chemiluminescent EMSA kit, per cited earlier method; 200 ng biotin probe, 1000 ng competitor; binding buffer, salt, pH and temperature not stated (probes annealed in 10 mM Tris-HCl, 1 mM EDTA, pH 8.0); conditions: protein: recombinant; tags: N-terminal 6xHis (pDEST17); label: 3' biotin (probe); blunt

Binder	binding result [1]	binding result [2]
AtSDD1 promoter fragment with GT3 box (dsDNA) DNA 1: TTCTTTGGCTTGGTAAAACTTCAATGGA DNA 2: TCCATTGAAGTTTTACCAAGCCAAAGAA	binds	
AtSDD1m (GT3 box GGTAAA to CCTAAA) (dsDNA) DNA 1: TTCTTTGGCTTCCTAAAACTTCAATGGA DNA 2: TCCATTGAAGTTTTAGGAAGCCAAAGAA	no binding	
PtSDD1m (GT2 box GGTAAT to CCTAAT) (dsDNA) DNA 1: TTCGTGAATATCCTAATGATTAT DNA 2: ATAATCATTAGGATATTCACGAA		no binding
